# Experimental data: patent US20180339041A1 (Kyowa Kirin, published 2018)
# Substitutions are numbered along the chain they refer to. Names and notes keep the numbering of the source. Values joined by “and” are separate entries in the source; they are usually repeats but may differ in a detail not shown here. Equal entries are not always repeated.
# T1: C-terminally FLAG-tagged human Gas6 recombinant protein (hGas6-F) (human, UniProt Q14393 31-678, gamma-carboxylated glutamic acid residues in the Gla domain (producer cells co-express rat VKOR and human GGCX); positions not given)
# T1 construct: also called human Gas6-F; human Gas6 protein
# T1 sequence: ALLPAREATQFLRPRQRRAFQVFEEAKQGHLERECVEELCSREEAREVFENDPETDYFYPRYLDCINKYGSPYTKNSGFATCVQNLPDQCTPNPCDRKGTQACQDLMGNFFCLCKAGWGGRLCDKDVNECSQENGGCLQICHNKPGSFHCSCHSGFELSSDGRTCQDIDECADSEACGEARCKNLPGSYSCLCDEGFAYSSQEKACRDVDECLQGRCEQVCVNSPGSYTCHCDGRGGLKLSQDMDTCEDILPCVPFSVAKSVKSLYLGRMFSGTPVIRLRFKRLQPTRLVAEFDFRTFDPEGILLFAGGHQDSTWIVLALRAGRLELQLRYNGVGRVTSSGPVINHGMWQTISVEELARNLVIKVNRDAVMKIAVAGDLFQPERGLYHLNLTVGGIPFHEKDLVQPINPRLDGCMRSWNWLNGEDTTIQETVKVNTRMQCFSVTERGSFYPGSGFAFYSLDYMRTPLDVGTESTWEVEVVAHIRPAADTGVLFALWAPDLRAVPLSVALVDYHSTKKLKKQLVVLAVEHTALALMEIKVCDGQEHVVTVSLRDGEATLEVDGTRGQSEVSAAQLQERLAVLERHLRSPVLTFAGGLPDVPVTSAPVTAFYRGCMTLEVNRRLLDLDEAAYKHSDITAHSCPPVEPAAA
# B1: hzKM5321 LV6HV1 antibody (antibody, V domains shown)
# VH: QVHLVQSGSELKKPGASVKISCKASGYTFTNYGMNWVRQAPGQGLKWMGWINTNTGEPTYTEEFKGRFVFSLDTSVTTSYLQISTLKAEDTAVYFCARDEGWFVYWGQGTLVTVSS
# VL: ETTLTQSPSSLSVSTGDRVTITCITSTDIDDDMNWYQQKPGKPPKLLISEGNTLRPGVPSRFSSSGSGTDFTLTISSTQPEDFADYYCLQTDSVPLTFGQGTKVEIK
# notes: Humanized; variant human IgG4 constant region (EU S228P, L235E, R409K), human kappa; also called B-22; LV6HV1
# B2: hzKM5321 LV6HV7 antibody (antibody, V domains shown)
# VH: B1 VH with V2I, S9P, R38K, S79A, V93T, V112I
# VL: B1 VL
# notes: Humanized; variant human IgG4 constant region (EU S228P, L235E, R409K), human kappa; also called B-18; LV6HV7
# B3: hzKM5321 LV1aHV7 antibody (antibody, V domains shown)
# VH: B1 VH with V2I, S9P, R38K, S79A, V93T, V112I
# VL: B1 VL with V13A, T15V, S64G, T78L, D85T
# notes: Humanized; variant human IgG4 constant region (EU S228P, L235E, R409K), human kappa; also called B-13; LV1aHV7
# B4: hzKM5321 LV1bHV7 antibody (antibody, V domains shown)
# VH: B1 VH with V2I, S9P, R38K, S79A, V93T, V112I
# VL: B1 VL with V13A, T15V, P43A, S64G, T78L
# notes: Humanized; variant human IgG4 constant region (EU S228P, L235E, R409K), human kappa; also called B-14; LV1bHV7
# B5: hzKM5321 LV1bHV0 antibody (antibody, V domains shown)
# VH: B1 VH with K46E
# VL: B1 VL with V13A, T15V, P43A, S64G, T78L
# notes: Humanized; variant human IgG4 constant region (EU S228P, L235E, R409K), human kappa; also called B-04; LV1bHV0
# B6: hzKM5321 LV6HV0 antibody (antibody, V domains shown)
# VH: B1 VH with K46E
# VL: B1 VL
# notes: Humanized; variant human IgG4 constant region (EU S228P, L235E, R409K), human kappa; also called B-08; LV6HV0
# B7: hzKM5321 LV1aHV0 antibody (antibody, V domains shown)
# VH: B1 VH with K46E
# VL: B1 VL with V13A, T15V, S64G, T78L, D85T
# notes: Humanized; variant human IgG4 constant region (EU S228P, L235E, R409K), human kappa; also called B-03; LV1aHV0
# B8: hzKM5321 LV4HV7 antibody (antibody, V domains shown)
# VH: B1 VH with V2I, S9P, R38K, S79A, V93T, V112I
# VL: B1 VL with P43A, S64G, L73F, D85T
# notes: Humanized; variant human IgG4 constant region (EU S228P, L235E, R409K), human kappa; also called B-17; LV4HV7
# B9: hzKM5321 LV1cHV7 antibody (antibody, V domains shown)
# VH: B1 VH with V2I, S9P, R38K, S79A, V93T, V112I
# VL: B1 VL with T15V, P43A, S64G, T78L, D85T
# notes: Humanized; variant human IgG4 constant region (EU S228P, L235E, R409K), human kappa; also called B-15; LV1cHV7
# B10: hzKM5321 LV7aHV7 antibody (antibody, V domains shown)
# VH: B1 VH with V2I, S9P, R38K, S79A, V93T, V112I
# VL: B1 VL with L73F
# notes: Humanized; variant human IgG4 constant region (EU S228P, L235E, R409K), human kappa; also called B-19; LV7aHV7
# B11: hzKM5321 LV6HV5 antibody (antibody, V domains shown)
# VH: B1 VH with V2I, R38K, S79A, V112I
# VL: B1 VL
# notes: Humanized; variant human IgG4 constant region (EU S228P, L235E, R409K), human kappa; also called B-29; LV6HV5
# B12: hzKM5321 LV3HV0 antibody (antibody, V domains shown)
# VH: B1 VH with K46E
# VL: B1 VL with V13A, P43A, S64G
# notes: Humanized; variant human IgG4 constant region (EU S228P, L235E, R409K), human kappa; also called B-06; LV3HV0
# B13: hzKM5321 LV1cHV0 antibody (antibody, V domains shown)
# VH: B1 VH with K46E
# VL: B1 VL with T15V, P43A, S64G, T78L, D85T
# notes: Humanized; variant human IgG4 constant region (EU S228P, L235E, R409K), human kappa; also called B-05; LV1cHV0
# B14: hzKM5321 LV7bHV7 antibody (antibody, V domains shown)
# VH: B1 VH with V2I, S9P, R38K, S79A, V93T, V112I
# VL: B1 VL with L4V, T15V, P43A, L73F, V104L
# notes: Humanized; variant human IgG4 constant region (EU S228P, L235E, R409K), human kappa; also called B-20; LV7bHV7
# B15: hzKM5321 LV4HV0 antibody (antibody, V domains shown)
# VH: B1 VH with K46E
# VL: B1 VL with P43A, S64G, L73F, D85T
# notes: Humanized; variant human IgG4 constant region (EU S228P, L235E, R409K), human kappa; also called B-07; LV4HV0
# B16: hzKM5321 LV6HV2a antibody (antibody, V domains shown)
# VH: B1 VH with R38K
# VL: B1 VL
# notes: Humanized; variant human IgG4 constant region (EU S228P, L235E, R409K), human kappa; also called B-23; LV6HV2a
# B17: hzKM5321 LV7aHV0 antibody (antibody, V domains shown)
# VH: B1 VH with K46E
# VL: B1 VL with L73F
# notes: Humanized; variant human IgG4 constant region (EU S228P, L235E, R409K), human kappa; also called B-09; LV7aHV0
# B18: hzKM5321 LV6HV4b antibody (antibody, V domains shown)
# VH: B1 VH with S9P, R38K, V93T
# VL: B1 VL
# notes: Humanized; variant human IgG4 constant region (EU S228P, L235E, R409K), human kappa; also called B-28; LV6HV4b
# B19: hzKM5321 LV6HV3a antibody (antibody, V domains shown)
# VH: B1 VH with S9P, V93T
# VL: B1 VL
# notes: Humanized; variant human IgG4 constant region (EU S228P, L235E, R409K), human kappa; also called B-25; LV6HV3a
# B20: hzKM5321 LV0HV7 antibody (antibody, V domains shown)
# VH: B1 VH with V2I, S9P, R38K, S79A, V93T, V112I
# VL: B1 VL with V13A, T15V, P43A, S64G, T78L, D85T
# notes: Humanized; variant human IgG4 constant region (EU S228P, L235E, R409K), human kappa; also called B-12; LV0HV7
# B21: hzKM5321 LV6HV4a antibody (antibody, V domains shown)
# VH: B1 VH with V2I, S9P, K46E, S79A, V112I
# VL: B1 VL
# notes: Humanized; variant human IgG4 constant region (EU S228P, L235E, R409K), human kappa; also called B-27; LV6HV4a
# B22: hzKM5321 LV6HV3b antibody (antibody, V domains shown)
# VH: B1 VH with R38K, V93T
# VL: B1 VL
# notes: Humanized; variant human IgG4 constant region (EU S228P, L235E, R409K), human kappa; also called B-26; LV6HV3b
# B23: hzKM5321 LV3HV7 antibody (antibody, V domains shown)
# VH: B1 VH with V2I, S9P, R38K, S79A, V93T, V112I
# VL: B1 VL with V13A, P43A, S64G
# notes: Humanized; variant human IgG4 constant region (EU S228P, L235E, R409K), human kappa; also called B-16; LV3HV7
# B24: hzKM5320 LV5HV6 antibody (antibody, V domains shown)
# VH: QVQLVQSGPELKKPGASVKISCKASGYTFTNYGMNWVKQAPGQGLKWMGWINTETGEPTYSDDFKGRFVFSLDTSVSTAYLQISSLKAEDTATYFCAREDGYYGTLDYWGQGTTVTVSS
# VL: DIVMTQSPDSLAVSLGERVTINCKASQSVSNDVAWYQQKPGQSPKVLIYYASNRYTGVPDRFSGSGSGTDFTFTISSVQAEDVAVYFCQQDYSSPWTFGQGTKLEIK
# notes: Humanized; variant human IgG4 constant region (EU S228P, L235E, R409K), human kappa; also called A-25
# B25: hzKM5320 LV6HV8 antibody (antibody, V domains shown)
# VH: B24 VH with V2I, S77T
# VL: B24 VL with L15A
# notes: Humanized; variant human IgG4 constant region (EU S228P, L235E, R409K), human kappa; also called A-17
# B26: hzKM5320 LV6HV0 antibody (antibody, V domains shown)
# VH: B24 VH with P9S, I20V, K38R, K46E, T93V, F95Y
# VL: B24 VL with L15A
# notes: Humanized; variant human IgG4 constant region (EU S228P, L235E, R409K), human kappa; also called A-09
# B27: hzKM5320 LV5HV8 antibody (antibody, V domains shown)
# VH: B24 VH with V2I, S77T
# VL: B24 VL
# notes: Humanized; variant human IgG4 constant region (EU S228P, L235E, R409K), human kappa; also called A-16
# Biological target: T1, C-terminally FLAG-tagged human Gas6 …
# Assay: SPR Biacore T100, captured antibody, Gas6 analyte, first test
# Method: An anti-human IgG antibody was immobilized on a CM5 sensor chip (manufactured by GE Healthcare Japan Corp.) using Human Antibody Capture Kit (manufactured by GE Healthcare Japan Corp.) according to the attached manual. Each test antibody adjusted to 1 μg/mL was added for 10 seconds at a flow rate of 10 μL/min to flow cells. […] The measurement was performed by the […] method. The obtained sensorgram was analyzed using Bia Evaluation Software (manufactured by GE Healthcare Japan Corp.), and the kinetic constant of each antibody was calculated.
Binder,Kd,koff,kon
B1,< 2.35 nM,0.000239 s⁻¹,> 102000 M⁻¹ s⁻¹
B2,< 2.59 nM,0.000281 s⁻¹ and 0.000278 s⁻¹,> 107000 M⁻¹ s⁻¹
B3,< 6.83 nM,0.000684 s⁻¹,> 100000 M⁻¹ s⁻¹
B4,< 7.49 nM,0.000751 s⁻¹,> 100000 M⁻¹ s⁻¹
B5,< 4.26 nM,0.000543 s⁻¹,> 127000 M⁻¹ s⁻¹
B6,< 1.19 nM,0.000159 s⁻¹ and 0.000238 s⁻¹,> 134000 M⁻¹ s⁻¹
B7,< 3.92 nM,0.000492 s⁻¹,> 126000 M⁻¹ s⁻¹
B8,< 8.59 nM,0.000859 s⁻¹,> 100000 M⁻¹ s⁻¹
B9,< 7.45 nM,0.00075 s⁻¹,> 101000 M⁻¹ s⁻¹
B10,< 2.91 nM,0.000299 s⁻¹,> 103000 M⁻¹ s⁻¹
B11,< 2.61 nM,0.000277 s⁻¹,> 106000 M⁻¹ s⁻¹
B12,< 1.86 nM,0.000285 s⁻¹,> 153000 M⁻¹ s⁻¹
B13,< 4.05 nM,0.000511 s⁻¹,> 126000 M⁻¹ s⁻¹
B14,< 3.07 nM,0.000329 s⁻¹,> 107000 M⁻¹ s⁻¹
B15,< 4.38 nM,0.000551 s⁻¹,> 126000 M⁻¹ s⁻¹
B16,< 2.07 nM,0.000212 s⁻¹,> 102000 M⁻¹ s⁻¹
B17,< 1.41 nM,0.000188 s⁻¹,> 133000 M⁻¹ s⁻¹
B18,< 1.92 nM,0.000204 s⁻¹,> 106000 M⁻¹ s⁻¹
B19,< 2.15 nM,0.000226 s⁻¹,> 105000 M⁻¹ s⁻¹
B20,< 6.74 nM,0.000672 s⁻¹,> 100000 M⁻¹ s⁻¹
B21,< 3.2 nM,0.000341 s⁻¹,> 106000 M⁻¹ s⁻¹
B22,< 1.88 nM,0.0002 s⁻¹,> 106000 M⁻¹ s⁻¹
B23,< 7.03 nM,0.000712 s⁻¹,> 101000 M⁻¹ s⁻¹
B24,< 1.8 nM,0.000147 s⁻¹,> 81700 M⁻¹ s⁻¹
B25,< 2.18 nM,0.000158 s⁻¹,> 72500 M⁻¹ s⁻¹
B26,< 3.22 nM,0.000216 s⁻¹,> 67200 M⁻¹ s⁻¹
B27,< 2.11 nM,0.000155 s⁻¹,> 73600 M⁻¹ s⁻¹
